Measurements reported in patent US20200085917A1.

Experiments:
[1] = biological target: Fahd1_IPI:IPI00468850.1 (mouse) (UniProt Q8R0F8); test: GST pull-down, LC-MS/MS
[2] = biological target: Slc25a19_IPI:IPI00118826.1 (mouse) (UniProt Q9DAM5); test: GST pull-down, LC-MS/MS
[3] = biological target: Lyrm7_IPI:IPI00117832.1 (mouse) (UniProt Q9DA03); test: GST pull-down, LC-MS/MS
[4] = biological target: Synj2bp_IPI:IPI00109206.1 (mouse) (UniProt Q9D6K5); test: GST pull-down, LC-MS/MS
[5] = biological target: Uqcrq_IPI:IPI00224210.5 (mouse) (UniProt Q9CQ69); test: GST pull-down, LC-MS/MS
Uqcrq_IPI:IPI00224210.5 (mouse), sequence (Q9CQ69 whole entry): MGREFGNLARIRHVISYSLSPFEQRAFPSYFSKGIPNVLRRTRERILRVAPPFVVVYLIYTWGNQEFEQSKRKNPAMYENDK

[6] = biological target: Hsdl1_IPI:IPI00225301.1 (mouse) (UniProt Q8BTX9); test: GST pull-down, LC-MS/MS
Hsdl1_IPI:IPI00225301.1 (mouse), sequence (Q8BTX9 2-330 limits assumed): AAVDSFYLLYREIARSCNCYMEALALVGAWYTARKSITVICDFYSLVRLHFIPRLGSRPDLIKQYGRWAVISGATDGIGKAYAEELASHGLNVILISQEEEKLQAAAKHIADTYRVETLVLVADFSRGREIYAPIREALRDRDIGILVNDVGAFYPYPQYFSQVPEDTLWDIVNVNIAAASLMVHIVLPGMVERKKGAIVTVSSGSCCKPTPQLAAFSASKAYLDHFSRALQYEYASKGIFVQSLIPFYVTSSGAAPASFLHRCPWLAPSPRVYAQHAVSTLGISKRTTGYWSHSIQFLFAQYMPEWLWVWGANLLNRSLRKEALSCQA

[7] = biological target: Acp6_IPI:IPI00624175.1 (mouse) (UniProt Q8BP40); test: GST pull-down, LC-MS/MS
Acp6_IPI:IPI00624175.1 (mouse), sequence (Q8BP40 26-418 limits assumed): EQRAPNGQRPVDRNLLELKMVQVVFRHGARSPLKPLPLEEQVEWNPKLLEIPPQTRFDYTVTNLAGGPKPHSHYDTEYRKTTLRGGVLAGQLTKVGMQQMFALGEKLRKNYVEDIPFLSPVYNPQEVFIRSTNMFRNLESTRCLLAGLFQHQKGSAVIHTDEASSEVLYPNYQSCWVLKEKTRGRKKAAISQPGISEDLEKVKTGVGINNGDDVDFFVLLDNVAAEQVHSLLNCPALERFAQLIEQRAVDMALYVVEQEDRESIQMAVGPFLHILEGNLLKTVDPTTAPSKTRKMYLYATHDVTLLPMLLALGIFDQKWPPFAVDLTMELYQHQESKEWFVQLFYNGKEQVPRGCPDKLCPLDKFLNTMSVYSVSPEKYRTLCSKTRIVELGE

[8] = biological target: Tim50 (endogenous, mouse) (mouse) (UniProt Q9D880); test: GST pull-down, LC-MS/MS
Tim50 (endogenous, mouse) (mouse), sequence (Q9D880 22-353 limits assumed): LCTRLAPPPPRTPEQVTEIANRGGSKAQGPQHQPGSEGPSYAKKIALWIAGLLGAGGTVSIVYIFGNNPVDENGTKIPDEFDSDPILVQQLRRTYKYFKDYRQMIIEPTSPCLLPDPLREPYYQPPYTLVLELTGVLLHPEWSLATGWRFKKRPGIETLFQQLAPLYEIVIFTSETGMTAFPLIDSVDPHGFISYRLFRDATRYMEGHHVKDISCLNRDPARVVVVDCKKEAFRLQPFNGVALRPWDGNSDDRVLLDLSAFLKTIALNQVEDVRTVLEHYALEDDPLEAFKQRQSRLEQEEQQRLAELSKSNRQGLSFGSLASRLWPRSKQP

[9] = biological target: Tim23 (endogenous, mouse forebrain mitochondria) (mouse) (UniProt Q9WTQ8); test: GST pull-down, LC-MS/MS
Tim23 (endogenous, mouse forebrain mitochondria) (mouse), sequence (Q9WTQ8 whole entry): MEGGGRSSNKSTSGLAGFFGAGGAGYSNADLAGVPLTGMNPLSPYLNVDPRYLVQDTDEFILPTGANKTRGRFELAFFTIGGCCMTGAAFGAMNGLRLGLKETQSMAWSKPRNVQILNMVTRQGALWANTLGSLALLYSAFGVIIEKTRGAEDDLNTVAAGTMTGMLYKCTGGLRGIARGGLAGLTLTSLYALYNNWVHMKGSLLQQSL

[10] = biological target: 2900010M23Rik_IPI:IPI00133350.1 (mouse); test: GST pull-down, LC-MS/MS
2900010M23Rik_IPI:IPI00133350.1 (mouse), sequence (Q9CQY6 whole entry): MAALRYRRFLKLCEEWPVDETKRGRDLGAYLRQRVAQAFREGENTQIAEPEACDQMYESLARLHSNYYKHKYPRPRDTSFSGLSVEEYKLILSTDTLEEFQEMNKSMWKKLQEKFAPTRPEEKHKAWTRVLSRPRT

[11] = biological target: Mrps33_IPI:IPI00135214.1 (mouse) (UniProt Q9D2R8); test: GST pull-down, LC-MS/MS
Mrps33_IPI:IPI00135214.1 (mouse), sequence (Q9D2R8 2-106 limits assumed): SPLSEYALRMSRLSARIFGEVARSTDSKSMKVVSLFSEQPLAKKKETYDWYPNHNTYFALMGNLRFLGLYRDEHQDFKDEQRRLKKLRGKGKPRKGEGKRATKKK

[12] = biological target: Suclg2_IPI:IPI00459487.3 (mouse) (UniProt Q9Z2I8); test: GST pull-down, LC-MS/MS
Suclg2_IPI:IPI00459487.3 (mouse), sequence (Q9Z2I8 39-433 limits assumed): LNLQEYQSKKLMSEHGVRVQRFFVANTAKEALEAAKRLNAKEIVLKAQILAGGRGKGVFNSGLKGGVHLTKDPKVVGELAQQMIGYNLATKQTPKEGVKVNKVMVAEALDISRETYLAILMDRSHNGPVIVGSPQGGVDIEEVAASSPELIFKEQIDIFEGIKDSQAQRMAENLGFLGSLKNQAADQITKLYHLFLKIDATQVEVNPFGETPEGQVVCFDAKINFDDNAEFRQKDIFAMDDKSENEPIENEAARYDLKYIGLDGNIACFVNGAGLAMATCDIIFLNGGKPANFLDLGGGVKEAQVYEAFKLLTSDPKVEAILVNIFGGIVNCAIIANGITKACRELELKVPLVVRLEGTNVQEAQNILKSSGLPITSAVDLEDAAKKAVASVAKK

[13] = biological target: Afg3l2_IPI:IPI00170357.5 (mouse) (UniProt Q8JZQ2); test: GST pull-down, LC-MS/MS
Afg3l2_IPI:IPI00170357.5 (mouse), sequence (Q8JZQ2 67-802 limits assumed): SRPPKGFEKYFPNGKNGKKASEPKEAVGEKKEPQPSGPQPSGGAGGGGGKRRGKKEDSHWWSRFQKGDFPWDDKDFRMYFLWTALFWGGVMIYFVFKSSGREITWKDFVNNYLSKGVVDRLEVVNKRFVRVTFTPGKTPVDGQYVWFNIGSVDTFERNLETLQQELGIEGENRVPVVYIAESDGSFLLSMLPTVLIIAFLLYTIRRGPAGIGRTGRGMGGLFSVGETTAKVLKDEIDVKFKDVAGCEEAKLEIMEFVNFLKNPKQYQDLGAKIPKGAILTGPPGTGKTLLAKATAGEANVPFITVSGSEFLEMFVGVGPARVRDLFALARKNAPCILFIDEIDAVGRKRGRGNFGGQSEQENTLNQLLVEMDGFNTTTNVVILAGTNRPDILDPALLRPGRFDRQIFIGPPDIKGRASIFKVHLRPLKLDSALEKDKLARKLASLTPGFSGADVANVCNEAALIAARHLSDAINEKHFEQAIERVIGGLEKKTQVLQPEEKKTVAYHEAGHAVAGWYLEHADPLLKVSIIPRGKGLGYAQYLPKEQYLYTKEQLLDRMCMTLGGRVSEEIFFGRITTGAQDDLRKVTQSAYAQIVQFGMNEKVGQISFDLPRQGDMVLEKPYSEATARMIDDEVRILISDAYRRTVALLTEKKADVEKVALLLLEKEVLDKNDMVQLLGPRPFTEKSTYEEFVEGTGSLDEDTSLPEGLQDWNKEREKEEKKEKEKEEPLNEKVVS

[14] = biological target: Dnajc19_IPI:IPI00111111.5 (mouse) (UniProt Q9CQV7); test: GST pull-down, LC-MS/MS
Dnajc19_IPI:IPI00111111.5 (mouse), sequence (Q9CQV7 2-116 limits assumed): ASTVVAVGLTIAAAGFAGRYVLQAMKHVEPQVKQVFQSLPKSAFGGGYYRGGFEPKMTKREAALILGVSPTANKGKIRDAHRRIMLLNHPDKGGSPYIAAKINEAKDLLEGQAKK

[15] = biological target: Slc25a27_IPI:IPI00108998.1 (mouse) (UniProt Q9D6D0); test: GST pull-down, LC-MS/MS
Slc25a27_IPI:IPI00108998.1 (mouse), sequence (Q9D6D0 whole entry): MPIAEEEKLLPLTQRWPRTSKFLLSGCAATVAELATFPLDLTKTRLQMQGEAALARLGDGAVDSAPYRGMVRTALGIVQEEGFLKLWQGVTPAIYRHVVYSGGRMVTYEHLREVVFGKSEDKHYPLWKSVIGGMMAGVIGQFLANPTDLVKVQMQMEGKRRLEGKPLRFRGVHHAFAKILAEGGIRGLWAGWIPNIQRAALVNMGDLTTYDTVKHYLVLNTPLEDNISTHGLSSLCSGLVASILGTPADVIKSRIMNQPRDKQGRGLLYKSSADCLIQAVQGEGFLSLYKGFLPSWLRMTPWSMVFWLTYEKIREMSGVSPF

[16] = biological target: Brp44_IPI:IPI00131896.1 (mouse) (UniProt Q9D023); test: GST pull-down, LC-MS/MS
Brp44_IPI:IPI00131896.1 (mouse), sequence (Q9D023 whole entry): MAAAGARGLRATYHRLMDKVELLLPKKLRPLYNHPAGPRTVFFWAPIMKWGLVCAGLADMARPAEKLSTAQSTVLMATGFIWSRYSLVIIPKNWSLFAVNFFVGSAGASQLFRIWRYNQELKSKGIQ

[17] = biological target: Ywhaq_IPI:IPI00408378.4 (mouse) (UniProt P68254); test: GST pull-down, LC-MS/MS
Ywhaq_IPI:IPI00408378.4 (mouse), sequence (P68254 whole entry): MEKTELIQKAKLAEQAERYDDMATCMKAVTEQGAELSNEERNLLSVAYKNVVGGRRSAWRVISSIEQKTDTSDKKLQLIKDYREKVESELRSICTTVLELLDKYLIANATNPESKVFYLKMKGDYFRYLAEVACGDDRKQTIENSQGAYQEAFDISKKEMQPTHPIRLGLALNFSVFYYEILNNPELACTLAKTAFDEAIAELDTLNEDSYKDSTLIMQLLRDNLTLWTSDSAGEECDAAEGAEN

[18] = biological target: TIM23 complex (mitochondrial inner membrane translocase, mouse forebrain mitochondria) (mouse) (UniProt Q9WTQ8); test: cell-based or functional assay

Lyrm7_IPI:IPI00117832.1 (mouse), sequence (Q9DA03 whole entry): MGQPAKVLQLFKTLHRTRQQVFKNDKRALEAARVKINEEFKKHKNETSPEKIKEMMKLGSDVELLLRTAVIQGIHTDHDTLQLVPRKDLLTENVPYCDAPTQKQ
Synj2bp_IPI:IPI00109206.1 (mouse), sequence (Q9D6K5 whole entry): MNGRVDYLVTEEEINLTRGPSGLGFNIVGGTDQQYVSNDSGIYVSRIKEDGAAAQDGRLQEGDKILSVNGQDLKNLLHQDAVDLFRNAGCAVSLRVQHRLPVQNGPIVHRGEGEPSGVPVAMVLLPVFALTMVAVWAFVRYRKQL
Fahd1_IPI:IPI00468850.1 (mouse), sequence (Q8R0F8 25-221 limits assumed): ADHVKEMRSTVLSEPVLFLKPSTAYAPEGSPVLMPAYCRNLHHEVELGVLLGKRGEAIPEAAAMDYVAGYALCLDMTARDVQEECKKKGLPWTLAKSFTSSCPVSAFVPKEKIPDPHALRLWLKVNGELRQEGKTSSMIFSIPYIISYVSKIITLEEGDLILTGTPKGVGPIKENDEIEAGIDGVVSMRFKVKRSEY
Slc25a19_IPI:IPI00118826.1 (mouse), sequence (Q9DAM5 whole entry): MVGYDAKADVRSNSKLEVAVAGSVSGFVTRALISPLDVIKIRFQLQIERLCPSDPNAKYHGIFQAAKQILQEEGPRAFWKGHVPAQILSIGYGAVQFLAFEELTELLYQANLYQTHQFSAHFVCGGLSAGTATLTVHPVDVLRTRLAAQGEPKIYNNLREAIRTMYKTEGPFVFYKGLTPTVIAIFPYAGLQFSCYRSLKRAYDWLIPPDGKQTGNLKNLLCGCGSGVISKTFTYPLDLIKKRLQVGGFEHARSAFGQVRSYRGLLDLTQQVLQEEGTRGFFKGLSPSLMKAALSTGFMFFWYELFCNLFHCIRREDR

A No. of total peptides [1] of 1 peptides, a No. of unique peptides [1] of 1 peptides and a No. of total peptides [2] of 1 peptides were found for “GST-Httex1-97Q (from UniProt P08515 1-218; P42858 1-88)” in this work. It also gave a No. of unique peptides [2] of 1 peptides, a No. of total peptides [3] of 1 peptides and a No. of unique peptides [3] of 1 peptides. The No. of total peptides [4] was 1 peptides, the No. of unique peptides [4] was 1 peptides and the No. of total peptides [5] was 1 peptides. The No. of unique peptides [5] was 1 peptides, the No. of total peptides [6] was 2 peptides and the No. of unique peptides [6] was 2 peptides. It also gave a No. of total peptides [7] of 2 peptides, a No. of unique peptides [7] of 2 peptides and a No. of total peptides [8] of 3 peptides. For the same substance, the No. of unique peptides [8] was 3 peptides, the No. of total peptides [9] was 1 peptides and the No. of unique peptides [9] was 1 peptides. It also gave a No. of total peptides [10] of 1 peptides, a No. of unique peptides [10] of 1 peptides and a No. of total peptides [11] of 1 peptides. It also gave a No. of unique peptides [11] of 1 peptides, a No. of total peptides [12] of 2 peptides and a No. of unique peptides [12] of 2 peptides. The No. of total peptides [13] was 5 peptides, the No. of unique peptides [13] was 4 peptides and the No. of total peptides [14] was 1 peptides. It also gave a No. of unique peptides [14] of 1 peptides, a No. of total peptides [15] of 2 peptides and a No. of unique peptides [15] of 2 peptides. For the same substance, the No. of total peptides [16] was 5 peptides, the No. of unique peptides [16] was 5 peptides and the No. of total peptides [17] was 1 peptides. The No. of unique peptides [17] was 1 peptides, the reduction of pOTC import into wild-type mouse forebrain mitochondria after incubation with 3 µM GST-Httex1-97Q, compared to control GST [18] was 50% and the reduction of pOTC import into wild-type mouse forebrain mitochondria after incubation with 10 µM GST-Httex1-97Q, compared to control GST [18] was 73%.
